Publication doi:10.1101/2020.06.06.138305

Target: His-tagged encapsulin from Thermotoga maritima (Thermotoga maritima)
Assay: co-purification

stoichiometry N (mSOG molecules per nanocompartment): 7
Substance: ESig-tagged mini-Singlet Oxygen Generator (miniSOG)
